Assay results from patent US20250042994A1 (HAINAN SIMCERE ZAIMING PHARMACEUTICAL, published 2025).

Experiments:
[1] = target: T1, human CD19 on CHO-K1-human CD19 cells (human, UniProt P15391 20-556); assay: FACS on CHO-K1-human CD19 cells
T1 construct: whole, on cells; also called CHO-K1-human CD19-2C8
T1 sequence (looked up): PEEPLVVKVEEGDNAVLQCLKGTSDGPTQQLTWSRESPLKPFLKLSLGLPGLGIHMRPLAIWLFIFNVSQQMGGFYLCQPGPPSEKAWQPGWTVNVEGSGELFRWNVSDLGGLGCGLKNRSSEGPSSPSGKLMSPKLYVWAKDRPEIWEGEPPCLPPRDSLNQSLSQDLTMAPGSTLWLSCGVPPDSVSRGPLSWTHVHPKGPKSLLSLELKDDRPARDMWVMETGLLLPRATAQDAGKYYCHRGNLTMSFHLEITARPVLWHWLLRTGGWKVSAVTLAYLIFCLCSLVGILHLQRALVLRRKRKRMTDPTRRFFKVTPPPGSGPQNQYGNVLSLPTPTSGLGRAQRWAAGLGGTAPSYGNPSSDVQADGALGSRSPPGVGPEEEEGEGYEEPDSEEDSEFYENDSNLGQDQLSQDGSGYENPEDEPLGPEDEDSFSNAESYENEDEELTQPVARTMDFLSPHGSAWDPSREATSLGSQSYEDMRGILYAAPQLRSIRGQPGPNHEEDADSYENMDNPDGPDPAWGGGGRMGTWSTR
Description: (§1) The desired cells were scale-up cultured in a T-75 cell culture flask to the logarithmic growth phase. For the adherent cell CHO-K1, the medium was aspirated, the cells were washed 2 times with a PBS buffer, and then digested with trypsin. After the digestion was terminated, the cells were washed 2 times with a PBS buffer; and for suspension cell Raji, the supernatant of the medium was discarded by directly centrifugation, and the cell pellet was washed 2 times with PBS. After counting the cells in the previous step, the cell pellet was resuspended with [PBS+2% (w/w) BSA] blocking solution to 2×10⁶ cells/ml, and added to a 96-well FACS reaction plate at 50 μl/well, and then the sample to be tested was added at 50 μl/well, and incubated on ice for 2 h. The obtained mixture was centrifuged and washed 3 times with a PBS buffer. […] The obtained mixture was centrifuged and washed 5 times with a PBS buffer, and FACS (FACS Canto™, purchased from BD Company) was used for detection and result analysis. Data analysis was performed by software (FlowJo) to obtain the mean fluorescence intensity (MFI) of the cells. And then software (GraphPad Prism8) was used for analysis, data fitting, and EC50 value calculation. […] The same method was used to detect the binding of the chimeric antibodies to endogenous CD19-negative cells, MoLT4 cells (purchased from ATCC, CRL-1582), and CHO-K1 cells.

[2] = target: T2, cynomolgus monkey CD19 on peripheral blood B cells (cynomolgus monkey (Macaca fascicularis), UniProt A0A2K5W8L9 20-557); assay: FACS, cynomolgus PBMC, CD20+ B cells
T2 construct: whole, on cells; also called cynomolgus monkey B cells
T2 sequence: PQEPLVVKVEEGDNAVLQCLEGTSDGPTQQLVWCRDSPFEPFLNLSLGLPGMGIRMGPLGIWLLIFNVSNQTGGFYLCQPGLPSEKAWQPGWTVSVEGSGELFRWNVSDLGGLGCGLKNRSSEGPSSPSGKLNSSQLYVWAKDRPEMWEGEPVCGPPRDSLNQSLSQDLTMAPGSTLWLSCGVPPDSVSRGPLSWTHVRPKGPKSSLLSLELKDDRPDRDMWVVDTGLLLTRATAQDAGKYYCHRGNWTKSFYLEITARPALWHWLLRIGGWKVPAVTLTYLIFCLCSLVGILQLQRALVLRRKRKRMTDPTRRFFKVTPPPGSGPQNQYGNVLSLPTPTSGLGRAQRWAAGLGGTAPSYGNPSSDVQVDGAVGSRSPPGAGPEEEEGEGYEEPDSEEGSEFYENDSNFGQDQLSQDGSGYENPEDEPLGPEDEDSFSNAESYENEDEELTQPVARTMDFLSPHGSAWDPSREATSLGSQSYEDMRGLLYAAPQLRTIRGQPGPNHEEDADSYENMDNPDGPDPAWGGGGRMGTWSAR
Method: The monkey peripheral blood mononuclear cells were extracted from fresh cynomolgus monkey peripheral blood (purchased from Shanghai Medicilon Inc.) according to the instructions of Ficoll-Paque Plus (purchased from GE Healthcae, catalog number: 171440-02). After the cell suspension was centrifuged, the cells were resuspended in PBS containing 1% BSA, and then the cells were counted. […] The mixture was incubated for 1 h at room temperature. After washing the cells three times, APC-labeled secondary antibody anti-human IgG Fc (catalog number: 409306, purchased from Biolegend) was added. After incubation at room temperature in the dark for 30 minutes, the cells were washed 5 times, gently resuspended with PBS containing 1% BSA, and detected and analyzed by FACS (FACS Canto™, purchased from BD Company), in which CD20 was used as a marker of B cells to gate the CD20-positive B cell population, the proportion of the chimeric antibody-labeled positive cells was analyzed, and the proportion of the chimeric antibody positive cell population to B cell population was calculated after treatments with the chimeric antibodies at the concentrations of 100 nM, 10 nM and 1 nM, respectively.

[3] = target: T3, monkey CD19 on HEK293T-monkey CD19 cells (monkey); assay: FACS on HEK293T-monkey CD19 cells
T3 construct: whole, on cells
Method: as §1, with “After” for “The desired cells were scale-up cultured in a T-75 cell culture flask to the logarithmic growth phase. For the adherent cell CHO-K1, the medium was aspirated, the cells were washed 2 times with a PBS buffer, and then digested with trypsin. After”
HEK293T-monkey CD19 cells were subjected to FACS detection and data analysis according to the method in example 5.2. […] The same method was used to detect binding of the chimeric antibodies to HEK293T cells.

[4] = target: T4, human CD19 on Raji cells (human, UniProt P15391 20-556); assay: FACS on Raji cells
T4 construct: whole, on cells
T4 sequence (looked up): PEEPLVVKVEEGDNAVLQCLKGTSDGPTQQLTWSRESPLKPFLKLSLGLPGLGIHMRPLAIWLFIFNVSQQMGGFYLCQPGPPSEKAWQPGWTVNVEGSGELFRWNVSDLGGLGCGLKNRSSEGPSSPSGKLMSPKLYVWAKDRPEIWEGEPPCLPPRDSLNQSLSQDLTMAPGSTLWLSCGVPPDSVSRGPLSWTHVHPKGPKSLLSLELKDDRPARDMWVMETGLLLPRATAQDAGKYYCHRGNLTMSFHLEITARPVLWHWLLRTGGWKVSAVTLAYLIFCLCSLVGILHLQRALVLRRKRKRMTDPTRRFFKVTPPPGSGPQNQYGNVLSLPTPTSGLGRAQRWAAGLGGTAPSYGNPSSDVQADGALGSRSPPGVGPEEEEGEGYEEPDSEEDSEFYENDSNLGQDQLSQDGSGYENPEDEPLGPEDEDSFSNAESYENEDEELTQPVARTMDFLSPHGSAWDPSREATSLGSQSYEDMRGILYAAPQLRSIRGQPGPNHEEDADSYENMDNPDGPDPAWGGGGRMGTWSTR
Description: as §1

| Binder | EC50 [1] | Maximum mean fluorescence intensity [1] | Proportion of chimeric antibody positive cells to B cells (%) at 1 nM [2] | Proportion of chimeric antibody positive cells to B cells (%) at 10 nM [2] | Proportion of chimeric antibody positive cells to B cells (%) at 100 nM [2] | EC50 [3] | Maximum mean fluorescence intensity [3] | EC50 [4] | Maximum mean fluorescence intensity [4] |
| --- | --- | --- | --- | --- | --- | --- | --- | --- | --- |
| F5.3.6 (antibody, human IgG1, V domains shown, human-murine chimeric antibody, human IgG1) VH: DVQLQESGPGLVKPSQSQSLTCSVTGYSITSGYYWNWIRQFPGNKLEWMGYISYDGSNNYNPSLKNRISITRDTSKNQFFLKLNSVTTEDTVTYYCARAPLTGDRYWYFDVWGTGTTVTVSS VL: DIVLTQSPASLAVSLGQRATISCRASQSVSTSSYSYMHWYQQKPGQTPKLLIKYASNLKSGVPARFSGSGSGTDFTLNIHPVEEEDTATYYCQHSWEIPPTFGGGTKLEIK | 3.62 nM | 46900 | 2% | 7% | 12% | 20.7 nM | 26100 | 3.19 nM | 22400 |
| F4.272.13 (antibody, human IgG1, V domains shown, human-murine chimeric antibody, human IgG1) VH: QVQLKESGPGLVAPSQSLSITCTVSGFSLTDYGVSWIRQPPGKGLEWLGVIWGSETTFYNSALKSRLSISKDNSKSQLFLQMNSLQADDTAIYYCAKHHYYGGSFSMDYWGQGTSVTVSS VL: DIQMTQTTSSLSASLGDRVTISCRASQDINNYLNWYQQKPDGTVKFLIYYTSRLHSGVPSRFSGSGSGTDYSLTISDLEQEDIATYFCQQGNTLPYTFGGGTKLEIK | 0.77 nM | 55300 | 1% | 2% | 9% | 3.86 nM | 40500 | 0.81 nM | 27600 |
| F4.276.12 (antibody, human IgG1, V domains shown, human-murine chimeric antibody, human IgG1) VH: EIQLQQSGPELVKPGASVKVSCKASGYAFSAYNMYWVKQSHGKSLEWIGYIDPYNGGTNYNQKFKGKATLTVDKSSSTAYMHLNSLTSEDSAVYYCARDGYEVTYWGQGTLVTVSA VL: QIVLTQSPALMSASLGEEITLTCSASSSVTYMHWSQQKSGTSPRLLIYSTSNLASGVPSRFSGSGSGTFYSLTISSVEAEDAADYYCHQWSSYPWTFGGGTKLEIK | 1.05 nM | 50200 | 2% | 1% | 2% | – | 597 | 0.78 nM | 23500 |

Continued by falling EC50 [1], values first:

| EC50 [1] | Maximum mean fluorescence intensity [1] | Proportion of chimeric antibody positive cells to B cells (%) at 1 nM [2] | Proportion of chimeric antibody positive cells to B cells (%) at 10 nM [2] | Proportion of chimeric antibody positive cells to B cells (%) at 100 nM [2] | EC50 [3] | Maximum mean fluorescence intensity [3] | EC50 [4] | Maximum mean fluorescence intensity [4] | Binder |
| --- | --- | --- | --- | --- | --- | --- | --- | --- | --- |
| 3.5 nM | 53600 | 5% | 13% | 18% | 5.7 nM | 43800 | 1.26 nM | 27300 | F5.8.6 (antibody, human IgG1, V domains shown, human-murine chimeric antibody, human IgG1) VH: QVQLHQPGAELVMPGASVTLSCKASGYTFTSYWMHWVKQRPGQGLEWIGEIDPSDSYTTYDQKFKGKATLTVDKFSSTAYMQFSSLTSEDSAVYYCARLTGNHLDYWGQGTTLTVSS VL: DIVMTQSHKFMSSSVGDRVSITCKASQDVSPAVAWYQQKPGQSPKLLIYSTSYRNTGVPDRFTGSGSGTDFTFTISSVQAEDLAVYYCQQHYSIPLTFGAGTKLELK |
| 2.6 nM | 47700 | 61% | 97% | 99% | 4.98 nM | 99900 | 1.34 nM | 22100 | F5.10.6 (antibody, human IgG1, V domains shown, human-murine chimeric antibody, human IgG1) VH: DVQLQESGPGLVKPSQSLSLTCSVTDYSITSGYYWTWIRQFPGNKLEWMGYISYDGSTNYNPSLKNRFSITRDTSKNQFFLKLNSVIIEDTATYYCARDRMSTTWYFDVWGTGTTVTVSS VL: DIVLTQSPASLAVSLGQRATISCRASESVDNYGISFMHWYQQKPGQPPKLLIYRASKTESGIPARFSGSGSRTDFTLTINPVETDDVATYYCQQSNKYPRTFGGGTKVEIK |
| 1.02 nM | 34000 | 93% | 98% | 98% | 2.82 nM | 81500 | 2.79 nM | 17600 | F5.2.9 (antibody, human IgG1, V domains shown, human-murine chimeric antibody, human IgG1) VH: QVTLKESGPGILQPSQTLSLTCSFSGFSLSTFGLGVGWVRQPSGKGLEWLAHIWWDDDKYYNPALKSRVTVSKETSKNQVFFKIANVDTADSATYYCARLSRGLRRDVVYAMDHWGQGTSVTVSS VL: DIQMTQTTSSLSASLGDRVTISCRASQDISNYLNWYQQKPDGSVKLLISYVSRLQSGVPSRFRGSGSGTDYSLTISNLDQEDIATYFCQQGIAFPYTFGGGTKLDIK |
